# Columns and labels:
# [1] = Description: […] (test sample). Delipidation was carried out by extracting the lipids with an equal volume of 2:1 (v/v) chloroform:methanol.
# The samples were loaded onto a reverse-phase C18 HPLC column and eluted with a linear gradient (25-58% over 33 min.) of acetonitrile (containing 0.1% TFA). Elution profiles were followed by absorbance (220 nm) and radioactivity.
# [2] = Pharmacokinetics in mice (radiolabeled peptide, intraperitoneal); assay type: in vivo; details: for HALF-LIFE: 2.5 mg/kg intraperitoneal
# Description: In each experiment, 2.5 mg/kg radiolabeled peptide was injected intraperitoneally into mice which were fed normal mouse chow or the atherogenic Thomas-Harcroft modified diet (resulting in severely elevated VLDL and IDL cholesterol). Blood samples were taken at multiple time intervals for assessment of radioactivity in plasma.
# [3] = HDL cholesterol in rabbits after injection of phospholipid/peptide complexes; assay type: in vivo, Male New Zealand White rabbits; parameters: HDL Cholesterol: unit not given here
# Description: Small discoidal particles consisting of phospholipid (DPPC) and peptide were prepared following the cholate dialysis method. The phospholipid was dissolved in chloroform and dried under a stream of nitrogen. The peptide was dissolved in buffer (saline) at a concentration of 1-2 mg/ml. The lipid film was redissolved in buffer containing cholate (43° C.) and the peptide solution was added at a 3:1 phospholipid/peptide weight ratio. The mixture was incubated overnight at 43° C. and then dialyzed at 43° C. (24 hr.), room temperature (24 hr.) and 4° C. (24 hr.), with three changes of buffer (large volumes) at temperature point. The complexes were filter sterilized (0.22 μm) for injection and storage at 4° C.
# Male New Zealand White rabbits (2.5-3 kg) were injected intravenously with a dose of phospholipid/peptide complex (5 or 10 mg/kg bodyweight, expressed as peptide) in a single bolus injection not exceeding 10-15 ml. The animals were slightly sedated before the manipulations. Blood samples (collected on EDTA) were taken before and 5, 15, 30, 60, 240 and 1440 minutes after injection. The hematocrit (Hct) was determined for each sample. Samples were aliquoted and stored at −20° C. before analysis.
# Plasma Lipids. The total plasma cholesterol, plasma triglycerides and plasma phospholipids were determined enzymatically using commercially available assays according to the manufacturer's protocols (Boehringer Mannheim, Mannheim, Germany and Biomerieux, 69280, Marcy-L'étoile, France).
# Lipoprotein Profiles. The plasma lipoprotein profiles of the fractions obtained after the separation of the plasma into its lipoprotein fractions were determined by spinning in a sucrose density gradient. The fractions were collected and in each individual fraction the phospholipid and cholesterol content was measured enzymatically.
# [4] = Circular dichroism: degree of helicity (free, SUVs, micelles, TFE); details: for % Helicity Free: free in buffer
# Method in brief: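 Far-UV CD (190–260 nm) at 37 °C on 5 μM peptide in 5 mM phosphate pH 7.4, either free, with EPC:Chol 20:1 SUVs (Ri 30 or 50), with lysophosphatidylcholine micelles (Ri 100), or in 90% TFE. Helicity derived from mean residue ellipticity at 222 nm or CONTIN fitting to reference spectra.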
sequence,measurement,setting,value
PVLDLFRELLNELLEALKQKLK [peptide 4],peptide remaining intact,"[1]; 8 day incubation in human serum, 37° C.",more than 80%
same,"degraded peptide (3 min. peak), share of total radioactivity","[1]; human plasma, 8 days at 37° C.",approximately 15%
same,maximum serum concentration reached,[2]; ApoE knockout mice,^5The maximum serum concentration reached was 17.4% injected % injected cpm
same,time of maximum serum concentration following injection,[2]; ApoE knockout mice,cpm at 1.46 hours following injection. r^2 = 0.973.
same,HALF-LIFE,[2]; ApoE knockout mice,14.2^5 hours
same,maximum serum concentration reached,"[2]; C57BL/6 mice, normal diet",^1The maximum serum concentration reached was 25.7% injected % injected cpm
same,time of maximum serum concentration following injection,"[2]; C57BL/6 mice, normal diet",cpm at 1.9 hours following injection. r^2 = 0.960.
same,HALF-LIFE,"[2]; C57BL/6 mice, normal diet",5.72^1 hours
same,time of maximum serum concentration following injection,"[2]; C57Bl/6 mice, high fat diet",cpm at 2.98 hours following injection. r^2 = 0.973.
same,HALF-LIFE,"[2]; C57Bl/6 mice, high fat diet",5.98^2 hours
same,association with plasma components in mice (in words),"[2]; mice, intraperitoneal",associated with the HDL component
same,time the peptide remained stable in the circulation,"[2]; mice, intraperitoneal",at least 6 hours
same,HDL Cholesterol,"[3]; 10 mg/kg i.v. as peptide/DPPC complexes, 15 min.",428
same,HDL Cholesterol,"[3]; 10 mg/kg i.v. as peptide/DPPC complexes, time not printed (row between 0 and 15 min.)",408
same,Increase in HDL Cholesterol,"[3]; 10 mg/kg, 15 min.",31.3%
same,HDL Cholesterol,"[3]; 10 mg/kg, 60 min.",387
same,Increase in HDL Cholesterol,"[3]; 10 mg/kg, 60 min.",18.9%
same,HDL Cholesterol,"[3]; 10 mg/kg, 240 min.",291
same,Increase in HDL Cholesterol,"[3]; 10 mg/kg, 240 min.",−10.7%
same,HDL Cholesterol,"[3]; 10 mg/kg, 1440 min.",347
same,Increase in HDL Cholesterol,"[3]; 10 mg/kg, 1440 min.",6.6%
same,duration of the increase in cholesterol of the HDL fractions,"[3]; 10 mg/kg, apparent at 5 min. following injection",approximately 1 hr
same,Increase in HDL Cholesterol,"[3]; 10 mg/kg, time not printed (row between 0 and 15 min.)",25.2%
same,% helicity in the presence of SUVs,[4],97%
same,% helicity in the presence of TFE,[4],94%
same,% Helicity Bound (micelles),[4]; peptide concentration 0.15 μM,65%
same,% Helicity Free,[4]; peptide concentration 0.15 μM,42%
same,% Helicity Bound (micelles),[4]; peptide concentration 0.40 μM,68%
same,% Helicity Free,[4]; peptide concentration 0.40 μM,58%
same,% Helicity Free,[4]; peptide concentration 2.0 μM,63%
same,% Helicity Bound (micelles),[4]; peptide concentration 5.0 μM,95%
same,% Helicity Free,[4]; peptide concentration 5.0 μM,80%
same,% Helicity TFE,[4]; peptide concentration 50.0 μM,94%
same,He (%) free,"[4]; percent helicity of free, unbound peptide",80%
same,He (%) SUVs,[4]; percent helicity of peptide-SUV complexes,97%
same,He (%) TFE,[4]; percent helicity of peptide-TFE solution,94%
same,He (%) mics,[4]; percent helicity of peptide-micelle complexes,95%
same,stability of the α-helical structure with temperature,"[4]; temperature range of 5-45° C., data not shown",completely stable
